Values belong to the binder of their own block, whether it stands above or below them.
Molecular target: wild type human presenilin 1 (PS1) (human, UniProt P49768 1-467)
Assay: cell-based or functional assay

Aβ42/Aβ40 Ratio: 0.59 normalized to mock transfection (1.0)
B1: PAMPΔ312-340 (other, not shown: small tags and cut ends)
chain: NSVERKIYIPLNKTAPCVRLLNATHQIGCQSSISGDTGVIHVVEKEEDLQWVLTDGPNPPYMVLLESKHFTRDLMEKLKGRTSRIAGLAVSLTKPSPASGFSPSVQCPNDGFGVYSNSYGPEFAHCREIQWNSLGNGLAYEDFSFPIFLLEDENETKVIKQCYQDHNLSQNGSAPTFPLCAMQLFSHMHAVISTATCMRRSSIQSTFSINPEIVCDPLSDYNVWSMLKPINTTGTLKPDDRVVVAATRLDSRSFFWNVAPGAESAVASFVTQLAAAEASRMVYDMEKGKFPVQLENVDSFVELGQVALRTSLELWMHTDPVSQKNESVRNQVEDLLATLEKSGAGVPAVILRRPNQSQPLPPSSLQRFLRARNISGVVLADHSGAFHNKYYQSIYDTAENINVSYPEWLSPEEDLNFVTDTAKALADVATVLGRALYELAGGTNFSDTVQADPQTVTRLLYGFLIKANNSWFQSILRQDLRSYLGDGPLQHYIAVSSPTNTTYVVQYALANLTGTVVNLTREQCQDPSKVPSENKDLYEYSWVQGPLHSNETDRLPRCVRSTARLARALSPAFELSQWSSTEYSTWTESRWKDIRARIFLIASKELELITLTVGFGILIFSLIVTYCINAKADVLFIAPREPGAVSY

Aβ42/Aβ40 Ratio: 0.09 normalized to mock transfection (1.0)
B2: PAMPΔ312-369 (other, not shown: small tags and cut ends)
chain: NSVERKIYIPLNKTAPCVRLLNATHQIGCQSSISGDTGVIHVVEKEEDLQWVLTDGPNPPYMVLLESKHFTRDLMEKLKGRTSRIAGLAVSLTKPSPASGFSPSVQCPNDGFGVYSNSYGPEFAHCREIQWNSLGNGLAYEDFSFPIFLLEDENETKVIKQCYQDHNLSQNGSAPTFPLCAMQLFSHMHAVISTATCMRRSSIQSTFSINPEIVCDPLSDYNVWSMLKPINTTGTLKPDDRVVVAATRLDSRSFFWNVAPGAESAVASFVTQLAAAEALRTSLELWMHTDPVSQKNESVRNQVEDLLATLEKSGAGVPAVILRRPNQSQPLPPSSLQRFLRARNISGVVLADHSGAFHNKYYQSIYDTAENINVSYPEWLSPEEDLNFVTDTAKALADVATVLGRALYELAGGTNFSDTVQADPQTVTRLLYGFLIKANNSWFQSILRQDLRSYLGDGPLQHYIAVSSPTNTTYVVQYALANLTGTVVNLTREQCQDPSKVPSENKDLYEYSWVQGPLHSNETDRLPRCVRSTARLARALSPAFELSQWSSTEYSTWTESRWKDIRARIFLIASKELELITLTVGFGILIFSLIVTYCINAKADVLFIAPREPGAVSY
